Data from publication PMC2883946.

How the values were obtained:
[1] = target: 14-3-3β (UniProt Q9CQV8); experiment: FLAG IP, 14-3-3 isoform immunoblot; conditions: reference: FLAG-AS160 wild type; sites S318,T568,S588,T642,S751
[2] = target: 14-3-3ε (UniProt P62259); experiment: FLAG IP, 14-3-3 isoform immunoblot; conditions: reference: FLAG-AS160 wild type; sites S318,T568,S588,T642,S751

“FLAG-AS160 (from UniProt O60343) FLAG-AS160 5P” was tested, and the “binding against the reference” value [1] was “weaker” and the “binding against the reference” value [2] was “weaker”.
